Assay results as given in patent US8715959B2, “Substitution mutant receptors and their use in a nuclear receptor-based inducible gene expression system” (priority 2001, dated 2014).

Assays:
[1] = target: A110P mutant CfEcR-A/BCDEF (Choristoneura fumiferana, UniProt O77255, A393P); assay: 3H-RH2485 competition ligand binding, A110P mutant CfEcR-A/BCDEF with CfUSP
Description: The ligand binding affinities of the A110P GAL4/CfEcR mutant were measured by binding ^3H-RH2485 and competing it with different concentrations of cold steroids or non-steroids. Briefly, 3H-RH2485 was bound to in vitro translated full-length CfEcR and bacterially expressed CfUSP and competed with increasing concentrations of cold steroidal or non-steroidal ligands. The reaction was carried out at room temperature for 1 hour followed by addition of activated dextran coated charcoal and centrifugation at 7000×g for 10 minutes at 4° C. The residual ^3H-RH2485 in the supernatant after centrifugation was measured using a scintillation counter. The fraction bound (f bound) values were determined and plotted against the concentration of ligand (in mM).

wild-type CfEcR-A/BCDEF = target: T1, wild-type CfEcR-A/BCDEF (Choristoneura fumiferana, UniProt O77240); assay: 3H-RH2485 competition ligand binding, wild-type CfEcR-A/BCDEF with CfUSP
T1 construct: "The full-length spruce budworm Choristoneura fumiferana EcR (“CfEcR-A/BCDEF”); b350 and b353 describe plain full-length EcR translated in vitro

WT full-length EcR = assay: In vitro ligand binding assay with 3H-RH2485 and cold competitors, full-length WT EcR (FIG. 1); design: species or system Choristoneura fumiferana; settings: cold ligand as competitor
Description: (§1) Applicants tested the A110P mutant CfEcR receptor in a steroid and non-steroid ligand binding assay to confirm that steroid binding was eliminated. Briefly, PonA binding activity was determined using an in vitro ligand binding assay (LBA). Steroid ligand binding assay (LBA) was performed using ^3H-PonA (200 Ci/mmol). In vitro translated Gal4/wild-type or A110P mutant CfEcR-DEF and bacterial expressed GST-CfUSP-A/BCDEF were used in the assay. The assay was performed with 8 μL of Gal4/wild-type or A110P mutant CfEcR-DEF, 2.5 uL of GST-CfUSP-A/BCDEF, 1 μL of ^3H-PonA, and 2 μL of unlabeled (“cold”) PonA as competitor in the presence of T buffer [90 mM Tris pH 8.0, 10 μM DTT comprising Complete™ protease inhibitor cocktail used according to the manufacturer's instructions (Boehringer Mannheim)]. The reaction was carried out at room temperature for 1 hour followed by the addition of dextran-coated charcoal (Sigma). The mixture was centrifuged at 7000×g for 10 minutes the amount of ^3H-PonA in the supernatant was measured. The reactions were done in triplicate. The full-length WT EcR or its A110P mutant were also in vitro translated and transcribed using the TNT system (Promega) according to the manufacturer's instructions and tested in in vitro ligand binding assays using 3H-RH2485, with cold 20E or non-steroids (RH2485 and GS™-E) as competitors. In addition, 5 μL of the in vitro translations were assayed for translation efficiency using SDS-PAGE following standard methods (Maniatis, 1989). The ligand binding results for both the wild-type and A110P mutant CfEcR-DEF receptors were calculated and are shown in FIG. 1.

A110P mutant CfEcR = assay: In vitro ligand binding assay with 3H-RH2485 and cold competitors, full-length A110P mutant (FIG. 1); design: species or system Choristoneura fumiferana; settings: cold ligand as competitor of 3H-RH2485
Description: as §1

DmEcR-CDEF [2] = assay: GAL4/DmEcR-CDEF wild-type and mutants, luciferase reporter transactivation in NIH3T3 cells; assay type: cell-based, Drosophila melanogaster; settings: GAL4/DmEcR-CDEF + VP16/LmUSP-EF + pFRLUC, 48 hours
Description: DNAs corresponding to the various switch constructs outlined in Example 1, specifically switches 1.1-1.2, were transfected into mouse NIH3T3 cells (ATCC) as follows. […] Two μl of Superfect™ was mixed with 100 μl of growth medium and 50 ng of either GAL4/wild-type EcR or Gal4/mutant EcR cassette, 50 ng of VP16/LmUSP-EF and 200 ng of pFRLuc were added to the transfection mix. […] The cells were harvested and reporter activity was assayed as described above.
Applicants mutated amino acid residues predicted to be critical for ecdysteroid binding and created GAL4/mutantDmEcR-CDEF cDNA gene expression cassettes as described in Example 1 above using PCR-mediated site-directed mutagenesis. The mutated and the WT cDNAs corresponding to the various switch constructs outlined above in Examples 1.8 and 1.9 were made and tested in reporter assays in NIH3T3 cells as described in Example 2. Each GAL4/DmEcR-CDEF construct, VP16/LmUSP-EF, and pFRLUC were transfected into NIH3T3 cells and the transfected cells were treated with 2.5 μM GS-™E or Ponasterone A. The cells were harvested and the reporter activity was measured at 48 hours after addition of ligand. The fold induction was calculated by dividing reporter activity in the presence of ligand with the reporter activity in the absence of ligand. From the fold induction, percent wild-type activity was calculated for each mutant.

DmEcR-CDEF [3] = assay: VP16/DmEcR-CDEF wild-type and mutants, 6xEcRE β-gal reporter transactivation in insect L57 cells; assay type: cell-based, Drosophila melanogaster; settings: for Fold increase over WT, 1 μM 20-hydroxyecdysone / Fold increase over WT, 1 μM GS™-E / reduction in steroid activity: VP16/DmEcR-CDEF; for reduction in steroid activity / steroid activity (summary of Table 14): 20E; for reduction in steroid activity: versus wild-type; for non-steroid activity (summary of Table 14): GS™-E; for non-steroid activity (summary of Table 14) / steroid activity (summary of Table 14): DmEcR mutants
Description: The wild-type and mutant DmEcR-CDEF receptors were also used to make VP16/wild-type or mutantDmEcR-CDEF constructs as described in Example 1.10 and 1.11. VP16DmEcR-CDEF and a 6×EcREβ-gal reporter were transfected into L57 cells and the transfected cells were treated with 1 uM 20-hydroxyecdysone (20E) or GS™-E. The cells were harvested, lysed and the reporter activity was measured as described above in Example 6. The fold induction was calculated by dividing reporter activity in the presence of ligand with the reporter activity in the absence of ligand. From the fold induction, percent wild-type activity was calculated for each mutant.

Chain of A110P mutant CfEcR-A/BCDEF (O77255 entry or part of it A393P): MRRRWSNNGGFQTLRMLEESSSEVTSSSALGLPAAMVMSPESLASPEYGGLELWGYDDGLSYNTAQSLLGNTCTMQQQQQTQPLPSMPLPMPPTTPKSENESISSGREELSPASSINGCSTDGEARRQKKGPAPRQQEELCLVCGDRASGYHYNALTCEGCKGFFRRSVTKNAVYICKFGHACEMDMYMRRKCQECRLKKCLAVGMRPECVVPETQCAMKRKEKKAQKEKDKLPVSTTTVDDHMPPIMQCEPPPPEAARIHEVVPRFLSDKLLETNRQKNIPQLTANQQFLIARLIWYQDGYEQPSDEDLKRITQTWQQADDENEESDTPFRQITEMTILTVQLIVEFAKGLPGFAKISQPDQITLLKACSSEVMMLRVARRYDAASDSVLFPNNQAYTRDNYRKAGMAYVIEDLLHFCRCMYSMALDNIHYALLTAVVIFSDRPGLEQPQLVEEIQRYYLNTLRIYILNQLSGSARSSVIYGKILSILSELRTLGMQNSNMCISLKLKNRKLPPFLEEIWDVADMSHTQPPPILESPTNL
Chain of A110P mutant CfEcR-A/BCDEF (O76202 whole entry, further chain, the tested form may be a part): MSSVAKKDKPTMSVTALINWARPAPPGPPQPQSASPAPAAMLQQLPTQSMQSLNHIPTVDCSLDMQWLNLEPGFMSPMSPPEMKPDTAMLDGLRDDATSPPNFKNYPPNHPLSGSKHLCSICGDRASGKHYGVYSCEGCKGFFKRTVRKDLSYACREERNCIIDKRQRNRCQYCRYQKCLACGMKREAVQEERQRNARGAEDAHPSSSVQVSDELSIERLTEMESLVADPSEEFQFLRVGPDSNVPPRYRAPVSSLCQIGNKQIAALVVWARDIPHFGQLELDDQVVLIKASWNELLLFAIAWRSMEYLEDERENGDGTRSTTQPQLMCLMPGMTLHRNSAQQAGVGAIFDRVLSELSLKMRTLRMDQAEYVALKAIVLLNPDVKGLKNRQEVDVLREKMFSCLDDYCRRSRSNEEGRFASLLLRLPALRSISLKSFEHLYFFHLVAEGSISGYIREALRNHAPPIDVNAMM

Row | Molecule | IC50 [1] | IC50 (wild-type CfEcR-A/BCDEF) | Fold increase over WT, 2.5 μM GS™-E (DmEcR-CDEF [2]) | Fold increase over WT, 2.5 μM Ponasterone A (DmEcR-CDEF [2]) | Fold increase over WT, 1 μM 20-hydroxyecdysone (DmEcR-CDEF [3]) | Fold increase over WT, 1 μM GS™-E (DmEcR-CDEF [3]) | non-steroid activity (summary of Table 14) (DmEcR-CDEF [3]) | steroid activity (summary of Table 14) (DmEcR-CDEF [3]) | further results
1 | CC(C)CC[C@@H](O)[C@](C)(O)[C@H]1CC[C@@]2(O)C3=CC(=O)[C@@H]4C[C@@H](O)[C@@H](O)C[C@]4(C)[C@H]3CC[C@]12C [Ponasterone A, ponasterone A] | > 1000 µM | 346 nM |  |  |  |  |  |  | 
2 | Cc1cc(C)cc(C(=O)N(NC(=O)c2ccc3c(c2C)OCCO3)C(C)(C)C)c1 [RH-125020, N′-tert-butyl-N′-(3,5-dimethylbenzoyl)-3,4-(1,2-ethylenedioxy)-2-methylbenzohydrazide] | 0.0257 µM | 10.1 nM |  |  |  |  |  |  | 
3 | CCc1ccc(C(=O)NN(C(=O)c2cc(C)cc(C)c2)C(C)(C)C)cc1 [RH-5992] | 0.322 µM | 133 nM |  |  |  |  |  |  | 
4 | CC(C)CC[C@@H](O)[C@](C)(O)[C@H]1CC[C@@]2(O)C3=CC(=O)[C@]4(O)C[C@@H](O)[C@@H](O)C[C@]4(C)[C@H]3[C@H](O)C[C@]12C [Muristerone A, muristeroneA] | > 1000 µM | 424 nM |  |  |  |  |  |  | 
5 | CC(C)(O)CC[C@@H](O)[C@](C)(O)[C@H]1CC[C@@]2(O)C3=CC(=O)[C@@H]4C[C@@H](O)[C@@H](O)C[C@]4(C)[C@H]3CC[C@]12C [Mutant 20E, 20-hydroxyecdysone] |  |  |  |  |  |  |  |  | competition with bound 3H-RH2485 (binding to WT full-length EcR) (WT full-length EcR): able to effectively compete; binding of ligand by the A110P mutant (A110P mutant CfEcR): completely disrupted
6 | G121R: DmEcR-CDEF LBD substitution mutant, Glycine (G) to Arginine (R) (protein, Drosophila melanogaster) LTYNQLAVIYKLIWYQDGYEQPSEEDLRRIMSQPDENESQTDVSFRHITEITILTVQLIVEFAKGLPAFTKIPQEDQITLLKACSSEVMMLRMARRYDHSSDSIFFANNRSYTRDSYKMARMADNIEDLLHFCRQMFSMKVDNVEYALLTAIVIFSDRPGLEKAQLVEAIQSYYIDTLRIYILNRHCGDSMSLVFYAKLLSILTELRTLGNQNAEMCFSLKLKNRKLPKFLEEIWDV |  |  | 0.0075 fold | 0.05 fold | 0.5 fold | 0.92 fold | minimal effect |  | reduction in steroid activity (DmEcR-CDEF [3]): 50%
7 | G121L: DmEcR-CDEF LBD substitution mutant, Glycine (G) to Leucine (L) (protein, Drosophila melanogaster) LTYNQLAVIYKLIWYQDGYEQPSEEDLRRIMSQPDENESQTDVSFRHITEITILTVQLIVEFAKGLPAFTKIPQEDQITLLKACSSEVMMLRMARRYDHSSDSIFFANNRSYTRDSYKMALMADNIEDLLHFCRQMFSMKVDNVEYALLTAIVIFSDRPGLEKAQLVEAIQSYYIDTLRIYILNRHCGDSMSLVFYAKLLSILTELRTLGNQNAEMCFSLKLKNRKLPKFLEEIWDV |  |  | 0.008 fold | 0.001 fold | 0.09 fold | 0.15 fold | lost sensitivity | lost sensitivity | 
8 | A107P: DmEcR-CDEF LBD substitution mutant, Alanine (A) to Proline (P) (protein, Drosophila melanogaster) LTYNQLAVIYKLIWYQDGYEQPSEEDLRRIMSQPDENESQTDVSFRHITEITILTVQLIVEFAKGLPAFTKIPQEDQITLLKACSSEVMMLRMARRYDHSSDSIFFPNNRSYTRDSYKMAGMADNIEDLLHFCRQMFSMKVDNVEYALLTAIVIFSDRPGLEKAQLVEAIQSYYIDTLRIYILNRHCGDSMSLVFYAKLLSILTELRTLGNQNAEMCFSLKLKNRKLPKFLEEIWDV |  |  |  |  | 0.09 fold | 0.9 fold | very little effect | loss of most steroid activity | 
9 | N213A: DmEcR-CDEF LBD substitution mutant, Asparagine (N) to Alanine (A) (protein, Drosophila melanogaster) LTYNQLAVIYKLIWYQDGYEQPSEEDLRRIMSQPDENESQTDVSFRHITEITILTVQLIVEFAKGLPAFTKIPQEDQITLLKACSSEVMMLRMARRYDHSSDSIFFANNRSYTRDSYKMAGMADNIEDLLHFCRQMFSMKVDNVEYALLTAIVIFSDRPGLEKAQLVEAIQSYYIDTLRIYILNRHCGDSMSLVFYAKLLSILTELRTLGNQAAEMCFSLKLKNRKLPKFLEEIWDV |  |  |  |  | 0.01 fold | 0.08 fold | lost sensitivity | lost sensitivity | 
10 | C217S: DmEcR-CDEF LBD substitution mutant, Cysteine (C) to Serine (S) (protein, Drosophila melanogaster) LTYNQLAVIYKLIWYQDGYEQPSEEDLRRIMSQPDENESQTDVSFRHITEITILTVQLIVEFAKGLPAFTKIPQEDQITLLKACSSEVMMLRMARRYDHSSDSIFFANNRSYTRDSYKMAGMADNIEDLLHFCRQMFSMKVDNVEYALLTAIVIFSDRPGLEKAQLVEAIQSYYIDTLRIYILNRHCGDSMSLVFYAKLLSILTELRTLGNQNAEMSFSLKLKNRKLPKFLEEIWDV |  |  | 0.014 fold | 0.0064 fold | 0.39 fold | 0.92 fold | minimal effect |  | reduction in steroid activity (DmEcR-CDEF [3]): 61%
11 | C217A: DmEcR-CDEF LBD substitution mutant, Cysteine (C) to Alanine (A) (protein, Drosophila melanogaster) LTYNQLAVIYKLIWYQDGYEQPSEEDLRRIMSQPDENESQTDVSFRHITEITILTVQLIVEFAKGLPAFTKIPQEDQITLLKACSSEVMMLRMARRYDHSSDSIFFANNRSYTRDSYKMAGMADNIEDLLHFCRQMFSMKVDNVEYALLTAIVIFSDRPGLEKAQLVEAIQSYYIDTLRIYILNRHCGDSMSLVFYAKLLSILTELRTLGNQNAEMAFSLKLKNRKLPKFLEEIWDV |  |  | 0.008 fold | 0.022 fold | 0.48 fold | 0.70 fold | reduced | reduced | 
